Data: patent US20240084259A1, “STEM CELL-DERIVED MATURE CARDIOMYOCYTES AND CARDIOVASCULAR DISEASE MODEL USING SAME” (KOREA UNIVERSITY RESEARCH AND BUSINESS FOUNDATION, priority 2019, published 2024)

Tests used:
Format in all cases: cell-based
[1] = system: human embryonic stem cells (BG01); test: Polymerase chain reaction for cell lineage markers during differentiation into cardiomyocytes; conditions: 15th day, treated 5th to 15th day; FGFs 10 ng/ml, ascorbic acid 200 μg/ml; vs control group
Text: (§1) In order to investigate the effect of FGF2 on differentiation by cardiomyocyte type, mature differentiation of cardiomyocytes, and differentiation of vascular smooth muscle cells, the expression of a cardiomyocyte marker (cTnT), mature cardiomyocyte marker (cTnI), ventricular cardiomyocyte marker (MLC2v), atrial cardiomyocyte markers (MLC2a, ANP), nodal cardiomyocyte markers (HCN4, TBX18), vascular smooth muscle cell markers (SMA, SM22), and vascular endothelial cell marker (CD31) in the control group and the group treated with 10 ng/ml FGF2 for 10 days from the 5th day to the 15th day during the differentiation of human embryonic stem cells (BG01) into cardiomyocytes was determined through polymerase chain reaction using primers for each cell lineage marker.
as §1, with “of FGF10” for “of FGF2”, “of the” for “of a”, “ng/ml FGF10” for “ng/ml FGF2”
as §1, with “of ascorbic acid” for “of FGF2”, “of the” for “of a”, “with 200 μg/ml ascorbic acid” for “with 10 ng/ml FGF2”
as §1, with “of FGF4” for “of FGF2”, “of the” for “of a”, “ng/ml FGF4” for “ng/ml FGF2”

[2] = system: human embryonic stem cells (BG01 cell line); test: Morphology and beating of cardiomyocytes differentiated from stem cells (optical microscope); conditions: FGFs 10 ng/ml, ascorbic acid 200 μg/ml; for day of differentiation on which beating cardiomyocytes were observed: control group 9th day; for cell morphology: treatment from 5th to 15th day of differentiation, vs control group
Protocol: In order to increase the differentiation efficiency of stem cells into cardiomyocytes and to improve differentiation by cardiomyocyte type and mature differentiation, conditions for monolayer differentiation of human embryonic stem cells (BG01 cell line) into cardiomyocytes were established.
An E8 culture medium (STEMCELL Technologies) containing a 2 μM ROCK inhibitor (thiazovivin) was added to a 6-well culture plate coated with Matrigel, and embryonic stem cells dissociated into single cells using Accutase were seeded at 2.5×10^5 cells per well. Culture was carried out for about 3 days, and the E8 culture medium was exchanged until confluence of the 6-well culture plate with the cells. When confluence of the 6-well plate with the human embryonic stem cells was achieved, CHIR99021 (Sigma-Aldrich) as a GSK-3 inhibitor was added at a concentration of 6 μM to a CDM3 culture medium (containing RPMI 1640, serum albumin and ascorbic acid as three chemically verified components, P. W. Burridge et al., Nature Methods 11:855, 2014), followed by culture for 24 hours. Then, on the 2nd day of differentiation, 5 μM IWP2 (Inhibitor of Wnt Production 2) was added to the medium, followed by culture for 2 days. After addition of 10 ng/ml FGF2, 10 ng/ml FGF4, 10 ng/ml FGF10, 200 μg/ml ascorbic acid, and 10 ng/ml FGF4+200 μg/ml ascorbic acid on the 5th day of differentiation, culture was carried out until the 15th day of differentiation while the culture medium was exchanged every 48 hours with an RPMI+B27(-Insulin) medium (FIG. 1a).

[3] = system: human embryonic stem cells (BG01); test: Immunofluorescence staining of cardiomyocyte type markers; conditions: 10 ng/ml FGF4 or 10 ng/ml FGF4+200 μg/ml ascorbic acid
Protocol: In order to investigate the effect of treatment with FGF4 alone and co-treatment with FGF4+ascorbic acid on type-specific differentiation and mature differentiation of human embryonic stem cells into cardiomyocytes, differences in expression of the cardiomyocyte marker (cTnT), ventricular cardiomyocyte marker (MLC2v), and atrial cardiomyocyte marker (MLC2a) after treatment with 10 ng/ml FGF4 or co-treatment with 10 ng/ml FGF4+200 μg/ml ascorbic acid for 10 days from the 5th day to the 15th day during the differentiation of human embryonic stem cells (BG01) into cardiomyocytes was confirmed through immunofluorescence staining (FIG. 7).

[4] = system: human embryonic stem cells; test: FGF4 concentration series, polymerase chain reaction for MLC2v, MLC2a, TBX18, SMA
Protocol: In order to determine the appropriate concentration of FGF4 on the increase in gene expression of the ventricular cardiomyocyte marker (MLC2v), atrial cardiomyocyte marker (MLC2a), nodal cardiomyocyte marker (TBX18), and vascular smooth muscle cell marker (SMA) from human embryonic stem cells, after treatment with FGF4 at various concentrations for 10 days from the 5th day to the 15th day of differentiation, polymerase chain reaction was performed using primers for MLC2v, MLC2a, TBX18, and SMA.

For O=C1O[C@H]([C@@H](O)CO)C(O)=C1O [ascorbic acid, reference compound], the “expression of atrial cardiomyocyte marker ANP (mRNA)” value [1] was “significantly increased”, the “expression of atrial cardiomyocyte marker MLC2a (mRNA)” value [1] was “significantly increased” and the “expression of cardiomyocyte marker cTnT (mRNA)” value [1] was “significantly increased”. For the same molecule, the “expression of mature cardiomyocyte marker cTnI (mRNA)” value [1] was “significantly increased”, the “expression of nodal cardiomyocyte marker HCN4 (mRNA)” value [1] was “significantly decreased” and the “expression of nodal cardiomyocyte marker TBX18 (mRNA)” value [1] was “significantly decreased”. The “expression of vascular smooth muscle cell marker SM22 (mRNA)” value [1] was “significantly decreased”, the “expression of vascular smooth muscle cell marker SMA (mRNA)” value [1] was “significantly decreased” and the “expression of ventricular cardiomyocyte marker MLC2v (mRNA)” value [1] was “significantly increased”. For the same molecule, the “day of differentiation on which beating cardiomyocytes were observed” value (“day of differentiation” for short) [2] was 9 days and the cell morphology [2] was “relatively flat morphology”.

For “FGF2: FGF2, maturation factor compared at 10 ng/ml”, the “expression of atrial cardiomyocyte marker ANP (mRNA)” value [1] was “significantly increased”, the “expression of mature cardiomyocyte marker cTnI (mRNA)” value [1] was “no effect” and the “expression of nodal cardiomyocyte marker HCN4 (mRNA)” value [1] was “significantly decreased”. The “expression of nodal cardiomyocyte marker TBX18 (mRNA)” value [1] was “significantly decreased”, the “expression of vascular endothelial cell marker CD31 (mRNA)” value [1] was “significantly increased” and the “expression of vascular smooth muscle cell marker SM22 (mRNA)” value [1] was “significantly decreased”. For the same molecule, the “expression of vascular smooth muscle cell marker SMA (mRNA)” value [1] was “significantly decreased”, the “expression of ventricular cardiomyocyte marker MLC2v (mRNA)” value [1] was “no effect” and the “day of differentiation” value [2] was 9 days. The cell morphology [2] was “morphological changes similar to the control group”.

B1: FGF10: FGF10, maturation factor compared at 10 ng/ml (protein, UniProt O15520 38-208, looked up)
Fibroblast growth factor 10: QALGQDMVSPEATNSSSSSFSSPSSAGRHVRSYNHLQGDVRWRKLFSFTKYFLKIEKNGKVSGTKKENCPYSILEITSVEIGVVAVKAINSNYYLAMNKKGKLYGSKEFNNDCKLKERIEENGYNTYASFNWQHNGRQMYVALNGKGAPRRGQKTRRKNTSAHFLPMVVHS
In the case of B1, the “expression of atrial cardiomyocyte marker MLC2a (mRNA)” value [1] is reported as “significantly increased”, the “expression of mature cardiomyocyte marker cTnI (mRNA)” value [1] is reported as “no effect” and the “expression of nodal cardiomyocyte marker HCN4 (mRNA)” value [1] is reported as “significantly increased”. For the same molecule, the “expression of nodal cardiomyocyte marker TBX18 (mRNA)” value [1] was “significantly increased”, the “expression of vascular smooth muscle cell marker SMA (mRNA)” value [1] was “significantly increased” and the “expression of ventricular cardiomyocyte marker MLC2v (mRNA)” value [1] was “no effect”. For the same molecule, the “day of differentiation” value [2] was 9 days and the cell morphology [2] was “morphological changes similar to the control group”.

B2: FGF4: fibroblast growth factor 4 (FGF4), maturation factor added to the differentiation medium (protein, UniProt P08620 31-206, looked up)
Fibroblast growth factor 4: APTAPNGTLEAELERRWESLVALSLARLPVAAQPKEAAVQSGAGDYLLGIKRLRRLYCNVGIGFHLQALPDGRIGGAHADTRDSLLELSPVERGVVSIFGVASRFFVAMSSKGKLYGSPFFTDECTFKEILLPNNYNAYESYKYPGMFIALSKNGKTKKGNRVSPTMKVTHFLPRL
For B2, the “expression of atrial cardiomyocyte marker ANP (mRNA)” value [1] was “significantly increased”, the “expression of atrial cardiomyocyte marker MLC2a (mRNA)” value [1] was “significantly increased” and the “expression of mature cardiomyocyte marker cTnI (mRNA)” value [1] was “significantly increased”. The “expression of nodal cardiomyocyte marker HCN4 (mRNA)” value [1] was “significantly decreased”, the “expression of nodal cardiomyocyte marker TBX18 (mRNA)” value [1] was “significantly decreased” and the “expression of vascular smooth muscle cell marker SM22 (mRNA)” value [1] was “significantly decreased”. The “expression of vascular smooth muscle cell marker SMA (mRNA)” value [1] was “significantly decreased”, the “expression of ventricular cardiomyocyte marker MLC2v (mRNA)” value [1] was “significantly increased” and the “morphology of cardiomyocytes (immunostaining)” value ([3]; 5th to 15th day, compared to control group) was “agglomerated and thickened morphology”. The “atrial cardiomyocyte marker MLC2a (immunostaining)” value ([3]; control group also positive) was “positive reaction”, the “expression of ventricular cardiomyocyte marker MLC2v (immunostaining)” value ([3]; in the thickened cells, 5th to 15th day) was “increased” and the “gene expression of atrial cardiomyocyte type marker MLC2a” value ([4]; 5 ng/ml FGF4, 5th to 15th day) was “started to increase”. The “gene expression of nodal cardiomyocyte marker TBX18” value ([4]; 5 ng/ml FGF4, 5th to 15th day) was “significantly decreased”, the “gene expression of vascular smooth muscle cell marker SMA” value ([4]; 5 ng/ml FGF4, 5th to 15th day) was “significantly decrease” and the “gene expression of ventricular cardiomyocyte type marker MLC2v” value ([4]; 5 ng/ml FGF4, 5th to 15th day) was “started to increase”. The “gene expression of atrial cardiomyocyte type marker MLC2a” value ([4]; 10 ng/ml FGF4, 5th to 15th day) was “highest”, the “gene expression of nodal cardiomyocyte marker TBX18” value ([4]; 10 ng/ml FGF4, 5th to 15th day) was “significantly decreased” and the “gene expression of vascular smooth muscle cell marker SMA” value ([4]; 10 ng/ml FGF4, 5th to 15th day) was “significantly decrease”. The “gene expression of ventricular cardiomyocyte type marker MLC2v” value ([4]; 10 ng/ml FGF4, 5th to 15th day) was “highest”, the “gene expression of atrial cardiomyocyte type marker MLC2a” value ([4]; 25 ng/ml FGF4, 5th to 15th day) was “highest” and the “gene expression of nodal cardiomyocyte marker TBX18” value ([4]; 25 ng/ml FGF4, 5th to 15th day) was “significantly decreased”. For the same molecule, the “gene expression of vascular smooth muscle cell marker SMA” value ([4]; 25 ng/ml FGF4, 5th to 15th day) was “significantly decrease”, the “gene expression of ventricular cardiomyocyte type marker MLC2v” value ([4]; 25 ng/ml FGF4, 5th to 15th day) was “highest” and the “gene expression of atrial cardiomyocyte type marker MLC2a” value ([4]; 50 ng/ml FGF4, 5th to 15th day) was “observed to increase”. The “gene expression of ventricular cardiomyocyte type marker MLC2v” value ([4]; 50 ng/ml FGF4, 5th to 15th day) was “observed to increase”, the “gene expression of nodal cardiomyocyte marker TBX18” value ([4]; 100 ng/ml FGF4, 5th to 15th day) was “significantly decreased” and the “day of differentiation” value [2] was 9 days. The cell morphology [2] was “formed in a thickened structure”.
